Data published in US20160075771A1 (ZESTAGEN S A, published 2016).

B1: monoclonal antibody (mAb) 4C5 (antibody, V domains shown)
VL: ELVMTQSPSSMYASLGERVTITCKASQDINSYLSWFQQKPGKSPKTLIYRANRLVDGVPSRFSGSGSGQDYSLTINSLEYEDMGIYYCLQYDEFPRLTFGAGTRLELKR
B2: human-mouse chimeric 4C5 antibody (antibody, V domains shown)
VL: B1 VL
B3: recombinant 4C5 (antibody, V domains shown)
VL: B1 VL

molecular target: surface HSP90 on MDAMB453 breast cancer cells (human, UniProt P07900 2-732); test: cell-based or functional assay

Row | Binder | inhibition of wound closure, MDAMB453 in vitro wound healing assay, 200 µg/ml, 48 hours [%]
1 | B1 | 55.3
2 | B2 | 51.2
3 | B3 | 46.5
